Data on one protein can be found in article PMC4278676.

The term Km denotes the substrate concentration at which the rate is half of its maximum. In general, kcat refers to the number of substrate molecules converted per active site and unit of time at saturation. What is called kcat/Km is the second-order rate constant that governs catalysis at low substrate concentration.

Substrate in this data set: Nc1ncnc2c1ncn2[C@@H]1O[C@H](COP(=O)(O)OP(=O)(O)OP(=O)(O)O)[C@@H](O)[C@H]1O
In words: purified protein. The following applies: co-substrate Co(II)Cbi^+.

B1: SeCobA (Salmonella enterica subsp. enterica serovar Typhimurium str. LT2) (protein)
chain: MSDERYQQRQQKVKDRVDARVAQAQEERGIIIVFTGNGKGKTTAAFGTAARAVGHGKNVGVVQFIKGTWPNGERNLLEPHGVEFQVMATGFTWETQNREADTAACMAVWQHGKRMLADPLLDMVVLDELTYMVAYDYLPLEEVISALNARPGHQTVIITGRGCHRDILDLADTVSELRPVKHAFDAGVKAQMGIDY
Consider B1, for which the Km was found to be 25.4 ± 9.0 µM, the catalytic constant (kcat) turned out to be 0.0067 s⁻¹ and the kcat/Km was found to be 260 M⁻¹ s⁻¹.
